For four molecules, Kd results are on record in article doi:10.1101/303537 (bioRxiv, 2018).

The target of experiment [1] is Retinoblastoma binding protein 4 (RBBP4) (human, UniProt Q09028 1-425). As to the kind of experiment: fluorescence polarisation. (Polarisation of emitted light reports the rotation of a fluorescent probe.)
Experiment [2] has as its target Retinoblastoma binding protein 7 (RBBP7) (human, UniProt Q16576 1-425). Briefly: fluorescence polarisation.

Usually Kd stands for the equilibrium constant for the complex coming apart.

Where no end group is shown, it is not given here.

Chain of Retinoblastoma binding protein 4 (RBBP4) (Q09028 whole entry): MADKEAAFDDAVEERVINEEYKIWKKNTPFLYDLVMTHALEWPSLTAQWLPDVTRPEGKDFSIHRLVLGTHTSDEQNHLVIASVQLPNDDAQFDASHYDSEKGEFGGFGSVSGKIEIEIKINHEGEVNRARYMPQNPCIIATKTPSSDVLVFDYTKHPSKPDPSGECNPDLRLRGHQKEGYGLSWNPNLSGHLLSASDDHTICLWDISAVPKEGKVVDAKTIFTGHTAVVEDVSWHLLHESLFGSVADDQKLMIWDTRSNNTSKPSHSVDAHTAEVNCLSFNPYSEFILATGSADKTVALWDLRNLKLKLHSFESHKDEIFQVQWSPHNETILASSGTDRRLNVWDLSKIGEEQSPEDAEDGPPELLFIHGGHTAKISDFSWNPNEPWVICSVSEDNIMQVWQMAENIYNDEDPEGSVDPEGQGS
Chain of Retinoblastoma binding protein 7 (RBBP7) (Q16576 whole entry): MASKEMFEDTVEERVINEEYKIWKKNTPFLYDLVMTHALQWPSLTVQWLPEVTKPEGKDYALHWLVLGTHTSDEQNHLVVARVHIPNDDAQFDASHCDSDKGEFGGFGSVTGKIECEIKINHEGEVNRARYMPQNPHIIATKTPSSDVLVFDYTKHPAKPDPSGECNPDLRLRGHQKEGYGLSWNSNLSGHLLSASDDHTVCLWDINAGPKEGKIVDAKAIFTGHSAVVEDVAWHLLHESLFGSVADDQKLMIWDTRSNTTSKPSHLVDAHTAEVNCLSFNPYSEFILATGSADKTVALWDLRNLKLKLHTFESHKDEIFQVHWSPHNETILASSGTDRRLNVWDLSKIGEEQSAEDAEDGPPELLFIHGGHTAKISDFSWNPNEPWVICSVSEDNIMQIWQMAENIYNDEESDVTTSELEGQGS

B1: FITC-labeled FOG-1 (1–15) peptide (peptide)
peptide: MSRRKQSNPRQIKRS
modifications: also: FITC label (position not given here)
In experiment [1], B1 returned a dissociation constant Kd of 488 ± 245 nM.

B2: FITC-labeled PHF6 (157–171) peptide (peptide)
peptide: KSKKKSRKGRPRKTN
modifications: also: FITC label (position not given here)
In the case of B2, the Kd in experiment [1] came out at 201 ± 102 nM.

B3: FITC-labeled histone H4 (16–41) peptide (peptide)
peptide: not shown
modifications: FITC label (position not given)
As to B3, in experiment [2], the Kd was determined as 135 ± 12 nM.

B4: FITC-labeled SUZ12 (105–121) peptide (peptide)
peptide: LIAPIFLHRTLTYMSHR
modifications: also: FITC label (position not given here)
Regarding B4, in experiment [1], the affinity, expressed as Kd, was 6400 ± 600 nM.
